Read-outs that look alike come from different tables or passages of the source.
What was measured:
[1] = target: T1, Recombinant DPP-IV (Homo sapiens, UniProt P27487); experiment: DPP-IV resistance assay by mass spectrometry
Method: The peptides were then desalted and concentrated on a C18 peptide micro trap (Michrom Bioresources, Inc., Auburn, Calif.) prior to introduction to a LTQ FT™ mass spectrometer (Thermo-Electron Corp., Waltham, Mass.) via an autosampler (Michrom Bioresources, Inc.). Peptides were eluted from a C5 packed 75 μm fused silica pico-frit column (New Objective, Inc., Woburn, Mass.) using a 5-60% acetonitrile/water gradient over 50 minutes at a flow rate of 500 nl/min. Extracted ion mass windows for the calculated m/z values of the most dominant charge states were used to search for both the parent compound and the theoretical hydrolyzed products within a given chromatogram. Exact mass was confirmed for each charge state by FT. The percentage of hydrolysis catalyzed by DPP-IV was estimated by dividing the area of product ions by the area of the total (parent+product) ions.
The estimated cleavage product conversion is based on the ratio of the ion extract area (indicated on top of the peaks) for [product ion]^5+ over that for total ions ([Mother Ion]^5++[product ion]^5+). The m/z ratios used to search for the expected ions are listed on the right side of the plots.

[2] = target: T1, Recombinant DPP-IV; design: purchased Chemicon International, Inc., Temecula, Calif; settings: Leiting et al. (2003); read-out: DPP-IV IC50, published value; cited from earlier work
[3] = human, kidney or brush border membranes, 4 h, pH 7.4
Method: The tubes were incubated in VorTemp 56™ (Eurotech Labs, UK) at 37° C. vortexed at 500 RPM. At time points of 0, 1, 2, 3, 4, and 5 hours, 200 μl STOP solution (50% ACN, 1% formic acid) was added to a given tube, and the samples were allowed to incubate until the end of the experiment. The samples were collected after 5 hours, centrifuged, and 200 μl of the supernatants were transferred into mass spectrometry vials. The intensities of the mother ions in each vial were analyzed with API 150EX™ mass spectrometer (Applied Biosystems, Foster City, Calif.) and quantified using the ANALYST™ program.
The hKBBM assay was also performed in the presence of valinepyrrolidide, a DPP-IV inhibitor.

[4] = system: NIH/Swiss mice; experiment: Oral glucose tolerance test (OGTT), glucose lowering; settings: IP

T1 sequence (P27487 whole entry, species assumed, the tested form may be a part): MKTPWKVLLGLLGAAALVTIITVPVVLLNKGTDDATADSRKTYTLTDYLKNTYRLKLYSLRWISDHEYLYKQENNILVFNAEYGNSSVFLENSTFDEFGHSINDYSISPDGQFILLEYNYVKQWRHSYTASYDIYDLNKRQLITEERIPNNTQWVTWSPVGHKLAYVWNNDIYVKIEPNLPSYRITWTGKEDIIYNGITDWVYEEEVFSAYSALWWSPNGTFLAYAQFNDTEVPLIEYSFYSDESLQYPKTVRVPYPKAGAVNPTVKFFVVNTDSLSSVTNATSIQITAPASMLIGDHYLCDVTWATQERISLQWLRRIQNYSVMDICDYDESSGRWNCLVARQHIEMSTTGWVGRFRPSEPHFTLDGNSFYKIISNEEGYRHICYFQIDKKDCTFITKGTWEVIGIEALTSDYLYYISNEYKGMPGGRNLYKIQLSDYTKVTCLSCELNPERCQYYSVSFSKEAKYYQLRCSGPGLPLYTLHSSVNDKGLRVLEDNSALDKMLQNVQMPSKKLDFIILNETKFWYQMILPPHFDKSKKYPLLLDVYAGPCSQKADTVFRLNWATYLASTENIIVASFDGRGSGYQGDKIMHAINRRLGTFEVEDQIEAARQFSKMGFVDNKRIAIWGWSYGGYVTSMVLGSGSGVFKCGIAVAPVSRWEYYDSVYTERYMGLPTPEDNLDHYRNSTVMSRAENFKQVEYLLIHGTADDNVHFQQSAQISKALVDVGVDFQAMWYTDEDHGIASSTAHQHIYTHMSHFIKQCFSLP

CC[C@H](C)[C@H](NC(=O)[C@H](Cc1ccccc1)NC(=O)[C@H](CCC(=O)O)NC(=O)[C@H](CCCCN)NC(=O)[C@H](C)NC(=O)[C@H](C)NC(=O)[C@H](CCC(N)=O)NC(=O)CNC(=O)[C@H](CCC(=O)O)NC(=O)[C@H](CC(C)C)NC(=O)[C@H](Cc1ccc(O)cc1)NC(=O)[C@H](CO)NC(=O)[C@H](CO)NC(=O)[C@@H](NC(=O)[C@H](CC(=O)O)NC(=O)[C@H](CO)NC(=O)[C@@H](NC(=O)[C@H](Cc1ccccc1)NC(=O)[C@@H](NC(=O)CNC(=O)[C@H](CCC(=O)O)NC(=O)[C@H](C)NC(=O)[C@@H](N)Cc1c[nH]cn1)[C@@H](C)O)[C@@H](C)O)C(C)C)C(=O)N[C@@H](C)C(=O)N[C@@H](Cc1c[nH]c2ccccc12)C(=O)N[C@@H](CC(C)C)C(=O)N[C@H](C(=O)N[C@@H](CCCCN)C(=O)NCC(=O)N[C@@H](CCCNC(=N)N)C(=O)NCC(=O)NCC(=O)NCC(=O)NCCCC[C@H](N)C(=O)N1CCSC1C#N)C(C)C (stereo partly drawn) [Compound 4845, GLP-1-(7-37)-GG-(S)-2,6-diamino-1-(thiazolidin-2-cyano-3-yl)hexan-1-one amide]
DPP-IV catalyzed cleavage product ions [1]: expected product ions were not observed

CC[C@H](C)[C@H](NC(=O)[C@H](Cc1ccccc1)NC(=O)[C@H](CCC(=O)O)NC(=O)[C@H](CCCCN)NC(=O)[C@H](C)NC(=O)[C@H](C)NC(=O)[C@H](CCC(N)=O)NC(=O)CNC(=O)[C@H](CCC(=O)O)NC(=O)[C@H](CC(C)C)NC(=O)[C@H](Cc1ccc(O)cc1)NC(=O)[C@H](CO)NC(=O)[C@H](CO)NC(=O)[C@@H](NC(=O)[C@H](CC(=O)O)NC(=O)[C@H](CO)NC(=O)[C@@H](NC(=O)[C@H](Cc1ccccc1)NC(=O)[C@@H](NC(=O)CNC(=O)[C@H](CCC(=O)O)NC(=O)[C@H](C)NC(=O)[C@@H](N)Cc1c[nH]cn1)[C@@H](C)O)[C@@H](C)O)C(C)C)C(=O)N[C@@H](C)C(=O)N[C@@H](Cc1c[nH]c2ccccc12)C(=O)N[C@@H](CC(C)C)C(=O)N[C@H](C(=O)N[C@@H](CCCCN)C(=O)NCC(=O)N[C@@H](CCCNC(=N)N)C(=O)NCC(=O)NCC(=O)NCC(=O)NCCCC[C@H](N)C(=O)N1CCSC1)C(C)C [Compound 4844, GLP-1-(7-37)-GG-(S)-2,6-diamino-1-(thiazolidin-3-yl)hexan-1-one amide]
DPP-IV catalyzed cleavage product ions ([1]; incubation with DPP-IV): expected product ions were not observed

CCC(C)C(N)C(=O)N1CCCC1C(=O)NC(C(=O)O)C(C)CC (stereo not drawn) [Diprotin A, Ile-Pro-Ile]
IC50 [2]: 3.5 µM

CC[C@H](C)[C@H](NC(=O)[C@H](Cc1ccccc1)NC(=O)[C@H](CCC(=O)O)NC(=O)[C@H](CCCCN)NC(=O)[C@H](C)NC(=O)[C@H](C)NC(=O)[C@H](CCC(N)=O)NC(=O)CNC(=O)[C@H](CCC(=O)O)NC(=O)[C@H](CC(C)C)NC(=O)[C@H](Cc1ccc(O)cc1)NC(=O)[C@H](CO)NC(=O)[C@H](CO)NC(=O)[C@@H](NC(=O)[C@H](CC(=O)O)NC(=O)[C@H](CO)NC(=O)[C@@H](NC(=O)[C@H](Cc1ccccc1)NC(=O)[C@@H](NC(=O)CNC(=O)[C@H](CCC(=O)O)NC(=O)[C@H](C)NC(=O)[C@H](Cc1c[nH]cn1)NC(=O)COCCOCCNC(=O)COCCOCCNC(=O)[C@@H]1CCCN1C(=O)[C@H](C)NC(CCc1ccccc1)C(=O)O)[C@@H](C)O)[C@@H](C)O)C(C)C)C(=O)N[C@@H](C)C(=O)N[C@@H](Cc1c[nH]c2ccccc12)C(=O)N[C@@H](CC(C)C)C(=O)N[C@H](C(=O)N[C@@H](CCCCN)C(=O)NCC(=O)N[C@@H](CCCNC(=N)N)C(N)=O)C(C)C (stereo partly drawn) [Compound 4984, (R,S)-1-[N^2-(1-carboxy-3-phenylpropyl)-L-ala]-L-pro-8-amino-3,6-dioxaoctanoyl-8-amino-3,6-dioxaoctanoyl-GLP-1-(7-36) amide]
intact conjugate compound present [3]: greater than 80% | glucose lowering in OGTT (FIGS. 7, 8) ([4]; 2 hour fasted mice): retain the glucose-lowering activity of GLP-1 | duration of glucose lowering in OGTT ([4]; 240 minutes sample): prolonged effect 4 hours after dosing

— patent US8759295B2, “Peptide-peptidase inhibitor conjugates and methods of using same” (Amylin Pharmaceuticals, LLC, priority 2006, dated 2014)
